# Laboratory results: the supplement of paper PMC9112550, “Optimization of the antimicrobial peptide Bac7 by deep mutational scanning” (BMC Biology, 2022)
# System: Escherichia coli TOP10
# Experiment: shrunken log2 fold change of peptide-encoding DNA abundance (4.5 h post-induction vs induction); higher = less antimicrobial activity (less host growth inhibition)
# Conditions: time post-induction: 4.5 h; library: site-saturation at positions 5, 18, 19, 20
# 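Also: peptides expressed intracellularly from a pBAD plasmid library in pooled LB shake-flask culture, induced with 0.3% L-arabinose, DNA abundance read by NGS, three biological replicates, DESeq2 with apeglm shrinkage.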
row,Sequence,shrunken log2 fold change
1,RRIRWRPPRLPRPRPRPVDFPRP,0.0271
2,RRIRMRPPRLPRPRPRPNCIPRP,0.11
3,RRIRNRPPRLPRPRPRPLNKPRP,-0.256
4,RRIRCRPPRLPRPRPRPNEFPRP,0.159
5,RRIRFRPPRLPRPRPRPHWFPRP,-0.0545
6,RRIRSRPPRLPRPRPRPACFPRP,1.54
7,RRIRTRPPRLPRPRPRPHAPPRP,-0.046
8,RRIRHRPPRLPRPRPRPKRWPRP,0.293
9,RRIRMRPPRLPRPRPRPFIRPRP,-0.47
10,RRIRYRPPRLPRPRPRPQKEPRP,-0.245
11,RRIRWRPPRLPRPRPRPAFSPRP,0.383
12,RRIRRRPPRLPRPRPRPRLEPRP,0.508
13,RRIRFRPPRLPRPRPRPWMDPRP,-0.347
14,RRIRTRPPRLPRPRPRPEQGPRP,0.196
15,RRIRRRPPRLPRPRPRPWHVPRP,-0.135
16,RRIRKRPPRLPRPRPRPPTPPRP,0.796
17,RRIRPRPPRLPRPRPRPVFKPRP,-0.189
18,RRIRNRPPRLPRPRPRPCTEPRP,-0.347
19,RRIRWRPPRLPRPRPRPKEMPRP,0.476
20,RRIRARPPRLPRPRPRPGTAPRP,0.493
21,RRIRWRPPRLPRPRPRPQTKPRP,0.434
22,RRIRMRPPRLPRPRPRPWMRPRP,0.7

row,Sequence,shrunken log2 fold change
1,RRIRYRPPRLPRPRPRPEVYPRP,-0.0597
2,RRIRYRPPRLPRPRPRPCPTPRP,-0.0225
3,RRIRIRPPRLPRPRPRPSYGPRP,-0.53
4,RRIRVRPPRLPRPRPRPQAHPRP,-0.209
5,RRIRCRPPRLPRPRPRPEQVPRP,-0.0491
6,RRIRIRPPRLPRPRPRPFQWPRP,-0.192
7,RRIRTRPPRLPRPRPRPCYDPRP,-0.127
8,RRIRVRPPRLPRPRPRPGQYPRP,-0.113
9,RRIRKRPPRLPRPRPRPDKRPRP,-0.0063
10,RRIRTRPPRLPRPRPRPNTSPRP,-0.43
11,RRIRWRPPRLPRPRPRPCNPPRP,-0.00159
12,RRIRFRPPRLPRPRPRPCRHPRP,0.0121
13,RRIRPRPPRLPRPRPRPPHRPRP,0.401
14,RRIRYRPPRLPRPRPRPHLMPRP,-0.126
15,RRIRYRPPRLPRPRPRPSVTPRP,-0.421
16,RRIRCRPPRLPRPRPRPRFPPRP,-0.0867
17,RRIRYRPPRLPRPRPRPENKPRP,-0.725
18,RRIRQRPPRLPRPRPRPHTMPRP,-0.9
19,RRIRSRPPRLPRPRPRPEDVPRP,0.183
20,RRIRMRPPRLPRPRPRPNEDPRP,0.186
21,RRIRLRPPRLPRPRPRPWDPPRP,-0.125
22,RRIRRRPPRLPRPRPRPWRWPRP,0.14

row,Sequence,shrunken log2 fold change
1,RRIRQRPPRLPRPRPRPTIEPRP,0.0419
2,RRIRQRPPRLPRPRPRPQPVPRP,0.00167
3,RRIRARPPRLPRPRPRPTDDPRP,0.332
4,RRIRQRPPRLPRPRPRPAWPPRP,0.303
5,RRIRRRPPRLPRPRPRPCSSPRP,0.0589
6,RRIRIRPPRLPRPRPRPMGHPRP,-0.174
7,RRIRWRPPRLPRPRPRPDFKPRP,-0.0843
8,RRIRERPPRLPRPRPRPQMCPRP,0.0746
9,RRIRSRPPRLPRPRPRPNYFPRP,-0.828
10,RRIRPRPPRLPRPRPRPNFLPRP,0.0421
11,RRIRIRPPRLPRPRPRPNHRPRP,0.0615
12,RRIRDRPPRLPRPRPRPAMGPRP,0.399
13,RRIRKRPPRLPRPRPRPSPRPRP,1.04
14,RRIRRRPPRLPRPRPRPYYWPRP,-0.0449
15,RRIRLRPPRLPRPRPRPWWKPRP,-0.198
16,RRIRDRPPRLPRPRPRPCGWPRP,0.335
17,RRIRLRPPRLPRPRPRPTYRPRP,-0.266
18,RRIRFRPPRLPRPRPRPLDSPRP,-0.0455
19,RRIRERPPRLPRPRPRPGHMPRP,-0.247
20,RRIRIRPPRLPRPRPRPCPNPRP,-0.159
21,RRIRDRPPRLPRPRPRPSPDPRP,0.312
22,RRIRKRPPRLPRPRPRPHWWPRP,0.119

row,Sequence,shrunken log2 fold change
1,RRIRHRPPRLPRPRPRPNCEPRP,-0.0369
2,RRIRGRPPRLPRPRPRPLMCPRP,0.55
3,RRIRQRPPRLPRPRPRPENQPRP,0.128
4,RRIRYRPPRLPRPRPRPMMYPRP,-0.00674
5,RRIRGRPPRLPRPRPRPSGDPRP,0.952
6,RRIRMRPPRLPRPRPRPPNKPRP,0.604
7,RRIRDRPPRLPRPRPRPTSWPRP,0.989
8,RRIRYRPPRLPRPRPRPHRSPRP,-0.017
9,RRIRPRPPRLPRPRPRPIREPRP,0.31
10,RRIRSRPPRLPRPRPRPTNMPRP,-0.465
11,RRIRTRPPRLPRPRPRPTHAPRP,4.04
12,RRIRPRPPRLPRPRPRPRPMPRP,0.513
13,RRIRCRPPRLPRPRPRPNRDPRP,-0.167
14,RRIRCRPPRLPRPRPRPIYKPRP,-0.559
15,RRIRVRPPRLPRPRPRPMGKPRP,-0.0406
16,RRIRFRPPRLPRPRPRPCFSPRP,-0.759
17,RRIRIRPPRLPRPRPRPPCSPRP,-0.339
18,RRIRRRPPRLPRPRPRPSRAPRP,0.369
19,RRIRMRPPRLPRPRPRPSIFPRP,0.00177
20,RRIRTRPPRLPRPRPRPNHVPRP,-0.0538
21,RRIRKRPPRLPRPRPRPWAEPRP,0.0785
22,RRIRFRPPRLPRPRPRPEARPRP,-0.137

row,Sequence,shrunken log2 fold change
1,RRIRYRPPRLPRPRPRPEGWPRP,0.489
2,RRIRCRPPRLPRPRPRPTCDPRP,0.187
3,RRIRVRPPRLPRPRPRPISIPRP,-0.133
4,RRIRSRPPRLPRPRPRPDLRPRP,0.248
5,RRIRTRPPRLPRPRPRPRMNPRP,-0.133
6,RRIRSRPPRLPRPRPRPYFLPRP,-0.885
7,RRIRRRPPRLPRPRPRPTQCPRP,0.252
8,RRIRARPPRLPRPRPRPHGDPRP,0.362
9,RRIRARPPRLPRPRPRPDADPRP,1.63
10,RRIRTRPPRLPRPRPRPNGCPRP,0.0101
11,RRIRSRPPRLPRPRPRPIETPRP,-0.29
12,RRIRYRPPRLPRPRPRPSEYPRP,-0.431
13,RRIRNRPPRLPRPRPRPISMPRP,-0.0881
14,RRIRYRPPRLPRPRPRPCPGPRP,-0.0926
15,RRIRQRPPRLPRPRPRPFPHPRP,0.259
16,RRIRKRPPRLPRPRPRPITKPRP,-0.0212
17,RRIRPRPPRLPRPRPRPIIRPRP,-0.168
18,RRIRCRPPRLPRPRPRPTMDPRP,-0.237
19,RRIRTRPPRLPRPRPRPKLNPRP,0.097
20,RRIRDRPPRLPRPRPRPVYCPRP,-0.115
21,RRIRTRPPRLPRPRPRPTQFPRP,0.0832
